The nature of this data set: label from the status in PepcDB records.
In the case of “MIMMKRYKKILLTGVLSALSCSFVHAQELYKNENAPVHERVMDLISRLTVEEKISLLRATSPGIPRLGIDKYYHGNEALHGVVRPGRFTVFPQAIGLAATWNPELQKRVATVISDEARARWNELDQGREQKEQFSDVLTFWSPTVNMARDPRWGRTPETYGEDPFLSGIMGTAFVNGLQGDDPHYLKIVSTPKHFAANNEEHNRFVCNPQISEKQLREYYFPAFEMCVKEGKAASIMSAYNALNDVPCTLNPWLLQKVLRQDWGFQGYVVSDCGGPALLVNAHKYVKTKEAAATLSIKAGLDLECGDDVYDGPLLNAYKQYMVSDADIDSAAYHVLTARMKLGLFDSGERNPYTKISPSVIGSKEHQQIALDAARQCVVLLKNQKNRLPLNADKLKSIAVVGINAGKCEFGDYSGAPVVEPVSILQGIRNRVGDRVKVVYAPWKSAADGLELIQGENFPEGLQAEYFDNTRLEGTPRVRKESWINFEPANQAPDPFLPKSPLSVRWTGKLKPTVSGRYTFSFTSDDGCRLSINNQMLIDAWQAHAVSTDSASIYLEAGKEYQLKAEYYDNRDYAIAKLQWKVPQIGKATRLDLYGEAGKAVRECETVVAVMGINKSIEREGQDRYDIQLPADQREFLQEIYKVNPNIIVVLVAGSSLAINWMDEHIPAIVNAWYPGEQGGTAVAEVLFGDYNPAGRLPLTYYKSLDELPPFDDYDITKGRTYKYFKGDVLYPFGYGLSYSSFTYSDLQVKDGGGEVTVSFRLKNTGKRNGDEVAQVYVRIPETGGIVPLKELKGFRRVPLKSGESRRVEIKLDKEQLRYWDVEKGQFVVPKGAFDVMVGASSKDIRLQTVIDL”, the protein production entry is listed as “failed”. On to “MIMRQLAHFKFFDTLSKKMVAGFIILILIGTVLLSLPWATPANVHTSLIDVLFTSASATCITGLTVVNTAAHWTTFGQLVILVLSEVGALGYMTFAVLLFNIMRRQIGLSTQLMVKASLNLERLSDTKSVMKYVVGLSLLFQLGGLGLLAIDFVPRFGWRHGLYVSLYHAVMSFCNAGFDVFGDSLQGFRNDPYVLTVTMILIIAGGLGFLVWRDVLLYHTRKRLTLNSKLTLLTTFSLFVIGFVLLLITERDLELLPTGMSWVNRTINTLFLSVTPRTAGLITMPTQGLQAGSLLVIMILMFVGGTPGSTAGGIKTTTFGVLMFQSIAQLRGRRDVEFSHRRFSQENINRALMLIFLASIVLTVATLILTQTEKIPKGFGLEYVLFEVLSAFGTVGLSLGLTPNLTLIGKIVIMMLMFIGRVGIFTSLYALSRRQARVNLIRYPAENILIG”, for which the protein production result is on record as “failed”.

In the case of “MIMTVLRQQPRAAGLVLGLIAANFLAWCWALQAFGDSGALMAASLLAWGYGLRHAVDADHIAAIDNVTRKMMQQGRRPFAVGAWFSLGHSSIVVLASAAIAATATAFSTQMSWLHDTGSVIGTAVSALFLLAMAFINLVILRSVWRSFRAWKRGEPVSDEIVSGGGVMSWLFGKTFRLISRSWQMYLVGFLFGLGFDTATEIGVLGISAAGASSGISVWSIMVFPALFASGMALVDTLDNVLMVGAYGWAFSKPQRKLYYNMTITGTSVVVALFIGGLEALGLLMDKFALSGGIWRWVGALNDNLGDAGFVVVGLFVACWALSVLNYRWRGYDNLAR”, the protein production entry is “failed”.

On to “MINDIKILGVGGSPRKNGNTDVLLDSFLKGAESAGVETKKVLLRDYSIEPCIGCERCRKTGTCTRFHDGMSLLYPEIEAAKGLTLGSPTYNYNVTALMKAFIDRLYPYYNFTNVRPRRYSSKLAGQGRKAIVFSVCEQLEIEEMGFTLGALGMPLEALGYEIVEKFPVTGYFDRGAVSRDEELLRKTFEAGKKMAEALHLEHHHHHH”, for which the protein production result is on record as “failed”. For “MINFEATELRLGLPGGNHGGEMAGKNNGKRGFSETVDLKLNLSSTAMDSVSKVDLENMKEKVVKPPAKAQVVGWPPVRSFRKNVMSGQKPTTGDATEGNDKTSGSSGATSSASACATVAYVKVSMDGAPYLRKIDLKLYKTYQDLSNALSKMFSSFTIGNYGPQGMKDFMNESKLIDLLNGSDYVPTYEDKDGDWMLVGDVPWEMFVDSCKRIRIMKGSEAIGLAPRALEKCKNRS”, the protein production result is reported as “failed”. In the case of “MINGNTSGLKEYILENLDKLYSTKIEKGKIINQEIVDYISEISNKINREINVAIDRNGNIIDISIGDSSTVNLPVIPVYDKKLSGVRIIHTHPSGNPHLSSVDISALIKLKLDCIVSIGVSEEGVTGYEVAICSIVNDELTYDRTLLENLDDFDYLEEIKEVEENLRKRNITEDDKEYALLIGIDKEEYLDELEELASACDVKVVGRFFQKRSKPDPLFLIGSGKIQELALTRQVRKVNLLIFDEELSGLQLKMIEEVTGCKVIDRTTLILEIFARRARTREAKLQVELAQLKYRSNRLIGFGVTMSRLGGGVGTKGPGEKKLEIDRRVIKKTIAYLNNELENIKKIRNTQRSKREDSGMPRVSLVGYTNVGKSTLRNVLVDMYQNDKTLKKEEVLSQDMLFATLDTTTRTIELKDKRIVSLTDTVGFIQKLPHDLVESFKSTLEEVIFSDLIIHVADISSKNVIEQIDAVEDVLEELNCLDKTKILLLNKIDNVTKDNSFPLMEKKIEEIKAKYSNYQILIISAKNRFNIDELMELIKKNLIVKTYNCKLLIPYVNTEIAARVHRNTIVKSESFVDEGIILEVVMNEKEYNKFKDFIFN”, the protein production entry was “failed”. With “MINIRSFRDLLRLFFIFKREVKITVLVTFIIIVLGAFLLPNRFESTALLLVKPGRDTSTLPIEIADRQAVVIPSAQRDPIIDEERILGGEPIARKVAEKYLDDLSRQPQPSGALATLKNAVKGAVEGIVDLLRGALQLVGLVEKQTPVERLTERMLKSFSVTHAAGSSVMEVSFTWNDPKVAQTVVKSWIEQYQQERAQTLGRKSLYAFYETESGATNQRILGYKKQIADYLNQLGAVSIEERLNDISRNLNNLKGEHLNTTRAVASTRSGLETIQKQLNSMKKEISIGRQMSLNPDRQDLQQRINAKQIERQEMLRTFKEGAPPVRAMDAAIANLQALLKSESGTVQRSENLAPNPVYTRLQNSFADQQASLSRLQTQAAQQETQLLKLEQERRQALAVEPELARLQRELSAAEKSFALYSDSTEKARIDRELDQSQISNIAVIEEATFKPSRVFPKSLSMLLAAIPLSLAVGLLALYFFYLLDQRIHDGDQIEERFGVKVWTSLQDLDSHLPQRNSAFTASLYRLYGILPLKQVALQGLVIGLTSARRGEGVSFVTAHLRDLLQERGHVVRVNGAPNAVPGEIVLLEASGFFSNQEAFVSLREADLIALIVEAETTTVPVLQNALSILTTAFKRVDGIIINRRRFGIPENVLNFLARIRSPH”, the protein production result is recorded as “failed”. For the sequence “MINLELFKEFLLNLIKDYGYFGIFLVGFSEPIFQPFPTEIFIIAGILLGLDWKLVWLISTIACNFGAVVTYYLAKKYGEKLMLKLFDEEKIKKGSHYLKKWGILGVIIASFTPIPFEVICWVCGSFEMPFERYMIAVFLSRLIRHGMVILPFVLKDHIHF”, the protein production result is recorded as “failed”. As for “MINMTRKLYYEDAYLKEAKGRVLEIRDNAILLDQTIFYPTGGGQPHDRGTINGVEVLDVYKDEEGNVWHVVKEPEKFKVGDEVELKIDWDYRYKLMRIHTGLHLLEHVLNEVLGEGNWQLVGSGMSVEKGRYDIAYPENLNKYKEQIISLFNKYVDEGGEVKIWWEGDRRYTQIRDFEVIPCGGTHVKDIKEIGHIKKLKRSSIGRGKQRLEMWLE”, the protein production entry is given as “not failed”. On to “MIPFDYIVEKTVSTGVLVDVIGALLEVGNLTEDYRGLKLPFKIMDQYKEVLQCEAHNDQALEFQRFFQRLTGPQNVIALVSWRLSGIYKLKTLSNDPISKVIANPDIPEVEEIRVVVY”, for which the protein production result is given as “failed”. As to “MIPGEILAVLVVVIPGVVNITYRLGIKKATIVGASADLVVAGLMYFLRPQTGFFYIQDSTMLFIIMVLSVYLLSAIYSTRYLKGIEVMGIREPTYYLLLNLFTASMLFSLEVNNYGLMWVGIEATTISSALLLITEKSETSLEATWRYIIIVSAGVTFAFISIILIYYTLGTLSVSTAIGSHVHSRIMVLAVSLALIGFGTKVGVFPVHTWLPDAHSEAPSPVSAMFSGVLLPTALYVLYRVYEIEPVRGLYVWFAVVSIVAASIFMGYQARYKRMFAYSTMENMNLALLGIAVGGSLGFTGALLLLLSHSFGKAGAFYSSGNILRFTGKKEIAEINGMHTSMPYTSTSLLMSSLAVTGAPPFGTFFGEFLILSGVLSLHMYVQFIIVIVFLAAAFISMNYNVTGMIFNGNCPNIEKDRLMPALSIFSSVIPLFIGIFFLVVYNEIL”, the protein production entry is listed as “failed”.

The values above are taken from a protein production outcome set (Wang et al. 2014).
